± gives the uncertainty stated by the source.
assay: protein stability index of a GFP-peptide fusion (yeast GPS) (PSI 1-4); higher = more stable; sorted into four equal gates, so the index is relative within each strain; settings: doa10∆
Summary of the method: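 Mid-log yeast cultures in leucine-free medium, carrying a pooled plasmid library, were sorted into four equal gates by their GFP/Cherry fluorescence ratio. Each plasmid expressed Cherry along with GFP fused upstream of a tiled 17-residue yeast protein peptide. Plasmids recovered from each gate were PCR-amplified and Illumina-sequenced, with reads assigned to strains by barcodes. The protein stability index was obtained by summing each gate's read frequency weighted by its gate number.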

Row | Sequence | protein stability index
1 | LESISHAGTAIGIMASD [PRE9] | 1.45 ± 0.14
2 | LETLEHNGAPHHAIEEA [RPO21] | 3.34 ± 0.12
3 | LEYEISKLKKETASFIP [YIL149C/MLP2] | 2.66 ± 0.08
4 | LFGNKPTTTTGGLFGNS [YGR119C/NUP57] | 2.94 ± 0.1
5 | LFQLLNALTVGDFDKFD [RPN9] | 3.1 ± 0.29
6 | LGEEHPLQVARCTKIIK [RPT1] | 2.18 ± 0.082
7 | LGGEINDNEDDDEEYDY [BRR2] | 3.5 ± 0.17
8 | LGICTHLGCVPIGEAGD [RIP1] | 2.21 ± 0.08
9 | LGKCSRITDASLFQLSK [GRR1] | 3.04 ± 0.11
10 | LGKKKATVDEFPLCVHL [RPL10] | 3.1 ± 0.19
11 | LGNGVACDPSEIEPILM [RGR1] | 2.06 ± 0.075
12 | LGNHAITIDSVVDANGC [YMR129W/POM152] | 2.42 ± 0.096
13 | LGNTSSVANTPSEIPDA [SWI3] | 2.95 ± 0.059
14 | LGPGIYCDPNTQEIRPV [RRP40] | 2.62 ± 0.057
15 | LGSGSNVDVCVMEIGKD [PUP1] | 3.59 ± 0.089
16 | LGVKNLGLCCLLDVKLA [YCG1] | 1.54 ± 0.05
17 | LGVKSRLLEKSELPDIY [SNF2] | 3.12 ± 0.13
18 | LGWDLDAIIPFAAIPEQ [FAS2] | 2.6 ± 0.28
19 | LHDEYLVSMRYPEDKKT [RPN3] | 2.81 ± 0.26
20 | LHKEQWQSGLKMYDYEE [RPN11] | 2.47 ± 0.081
21 | LHKFLTKWGLINYQVDS [SWI3] | 2.46 ± 0.17
22 | LHVEQLSGGQKTVCAIA [SMC3] | 1.58 ± 0.15
23 | LHYCVSCAIHARIVRVR [RPS26A] | 1.17 ± 0.066
24 | LHYDKDYNLRIYCYFLI [SSN8] | 1.28 ± 0.046
25 | LIAEETNNKKLLEKANN [SMC3] | 2.41 ± 0.055

Row | Sequence | protein stability index
26 | LIASHYGVSFFTIQSFV [BRR2] | 1.92 ± 0.043
27 | LIDFEYVNDVAIYNNPT [RRI2] | 2.73 ± 0.062
28 | LIENCKQVLDVDPVYKD [FAS2] | 3.14 ± 0.17
29 | LIENKIQNKKIQEQRVK [RPN8] | 2.61 ± 0.075
30 | LIHPENFTCNRKILNFK [SWI1] | 2.17 ± 0.069
31 | LIIRNDSLSGAVIAAIM [RPT3] | 3.17 ± 0.11
32 | LIKKPLTVFYAIKKFKT [SSN3] | 1.51 ± 0.11
33 | LILQRLKDLNLTVSIKI [RGR1] | 1.76 ± 0.073
34 | LIPASDLSWSKQTDTGI [PRP8] | 2.32 ± 0.089
35 | LISGPRNQILVSITDAP [YMR129W/POM152] | 1.68 ± 0.092
36 | LISKPAKKNNFIEDLAP [UBP6] | 2.54 ± 0.084
37 | LITPAVRNTAPNIRELG [YCG1] | 2.57 ± 0.18
38 | LITSEMFDAFVSFYFED [SIN4] | 1.94 ± 0.1
39 | LKEDDSSLYEASLNALK [RPN1] | 3.44 ± 0.24
40 | LKEERAIEPETFTQLVS [PUP3] | 2.5 ± 0.057
41 | LKENAGSLTFLDNKGSG [YIL149C/MLP2] | 3.31 ± 0.17
42 | LKEQELVLYDAENDVIE [BRR2] | 3.24 ± 0.16
43 | LKEQSEQLKEQMEDMEE [SMC4] | 3.21 ± 0.079
44 | LKERAKNISSQLDSKLM [YGR119C/NUP57] | 1.2 ± 0.2
45 | LKIFEGIPPPYDKKKRV [RPL16B] | 1.43 ± 0.15
46 | LKIIHDTFRWVGKKSAP [RPO31] | 2.51 ± 0.15
47 | LKKLEKEYELLTLQEDY [RPT3] | 2.37 ± 0.1
48 | LKLDKIIHVLTTMFENT [RGR1] | 2.07 ± 0.049
49 | LKLLAKSHVLLATPVQF [BRR2] | 1.89 ± 0.068
50 | LKLPADATTWRYSMSEQ [IRR1] | 2.68 ± 0.071

Row | Sequence | protein stability index
51 | LKRISDGLSFGKGESVI [SIR3] | 3.21 ± 0.28
52 | LKRMEILKSPHLSKSPA [SIR4] | 2.96 ± 0.06
53 | LKSQMDTSKALLNVSVN [SKI6] | 3.22 ± 0.13
54 | LKTLTHKQIHTTIFVKS [POP7] | 1.94 ± 0.036
55 | LKTRYVGRQDPKKHLSE [RPN11] | 3.08 ± 0.087
56 | LKVYKVGDIVDIKANGS [RPL21A] | 2.35 ± 0.054
57 | LLAKAVANQTSATFLRI [RPT2] | 3 ± 0.13
58 | LLAREVLRLRGALVDRT [RPS0A] | 2.17 ± 0.21
59 | LLDDKKLMDEDSVATVI [YJR042W/NUP85] | 3.06 ± 0.15
60 | LLDEEAEQSFDQQSPWL [RPO21] | 3.27 ± 0.073
61 | LLDILVKGETRIQNRVK [PRP8] | 3.38 ± 0.14
62 | LLEKANNQQRLLLKKLD [SMC3] | 2.31 ± 0.074
63 | LLEKYNTNELKEVSSFL [MTR3] | 3.05 ± 0.054
64 | LLENPNCFFDVIVPQIV [DIS3] | 3.23 ± 0.13
65 | LLEPPAKELQGIDPDET [RPO31] | 3.19 ± 0.15
66 | LLHVAVSDSNDDVRRAA [RPN2] | 3.01 ± 0.087
67 | LLIEFPYLPKHYLVLLV [YJR042W/NUP85] | 1.98 ± 0.06
68 | LLLAAQIVSYCSNNKNS [SSN2] | 1.17 ± 0.045
69 | LLLNYLELIGVLSINPD [MED7] | 1.6 ± 0.067
70 | LLNILITYGIIKVPTYI [SRB8] | 1.57 ± 0.083
71 | LLPNSKNVENTKNLSIL [DSN1] | 2.59 ± 0.1
72 | LLRIQMLLCVSYFLQER [PCI8] | 1.29 ± 0.046
73 | LLSDTFEVLAPKWERVF [RRI2] | 3.13 ± 0.11
74 | LLTEELAKSGSTEETTA [TAF14] | 3.05 ± 0.15
75 | LLVNPDIDLETYSFIDN [YML103C/NUP188] | 2.79 ± 0.059

same assay, conditions: pdr5∆

Row | Sequence | protein stability index
76 | LESISHAGTAIGIMASD [PRE9] | 2.15 ± 0.1
77 | LETLEHNGAPHHAIEEA [RPO21] | 3.01 ± 0.1
78 | LEYEISKLKKETASFIP [YIL149C/MLP2] | 2.8 ± 0.085
79 | LFGNKPTTTTGGLFGNS [YGR119C/NUP57] | 2.79 ± 0.13
80 | LFQLLNALTVGDFDKFD [RPN9] | 2.36 ± 0.26
81 | LGEEHPLQVARCTKIIK [RPT1] | 2.78 ± 0.073
82 | LGGEINDNEDDDEEYDY [BRR2] | 3.34 ± 0.081
83 | LGICTHLGCVPIGEAGD [RIP1] | 2.33 ± 0.076
84 | LGKCSRITDASLFQLSK [GRR1] | 3.14 ± 0.11
85 | LGKKKATVDEFPLCVHL [RPL10] | 2.67 ± 0.14
86 | LGNGVACDPSEIEPILM [RGR1] | 2.19 ± 0.067
87 | LGNHAITIDSVVDANGC [YMR129W/POM152] | 1.95 ± 0.08
88 | LGNTSSVANTPSEIPDA [SWI3] | 3.06 ± 0.062
89 | LGPGIYCDPNTQEIRPV [RRP40] | 2.78 ± 0.051
90 | LGSGSNVDVCVMEIGKD [PUP1] | 3.53 ± 0.087
91 | LGVKNLGLCCLLDVKLA [YCG1] | 1.58 ± 0.045
92 | LGVKSRLLEKSELPDIY [SNF2] | 3.42 ± 0.15
93 | LGWDLDAIIPFAAIPEQ [FAS2] | 3.14 ± 0.15
94 | LHKEQWQSGLKMYDYEE [RPN11] | 2.8 ± 0.081
95 | LHKFLTKWGLINYQVDS [SWI3] | 2.71 ± 0.12
96 | LHVEQLSGGQKTVCAIA [SMC3] | 2.08 ± 0.24
97 | LHYCVSCAIHARIVRVR [RPS26A] | 1.2 ± 0.083
98 | LHYDKDYNLRIYCYFLI [SSN8] | 1.37 ± 0.045
99 | LIAEETNNKKLLEKANN [SMC3] | 2.68 ± 0.075
100 | LIASHYGVSFFTIQSFV [BRR2] | 1.89 ± 0.039

Row | Sequence | protein stability index
101 | LIDFEYVNDVAIYNNPT [RRI2] | 2.92 ± 0.038
102 | LIENCKQVLDVDPVYKD [FAS2] | 3.21 ± 0.12
103 | LIENKIQNKKIQEQRVK [RPN8] | 2.7 ± 0.073
104 | LIHPENFTCNRKILNFK [SWI1] | 2.49 ± 0.064
105 | LIIRNDSLSGAVIAAIM [RPT3] | 3.09 ± 0.11
106 | LIKKPLTVFYAIKKFKT [SSN3] | 1.56 ± 0.048
107 | LILQRLKDLNLTVSIKI [RGR1] | 1.96 ± 0.071
108 | LIPASDLSWSKQTDTGI [PRP8] | 2.68 ± 0.063
109 | LIPDGRHLVNRGREEAA [PRE10] | 1.41 ± 0.28
110 | LISGPRNQILVSITDAP [YMR129W/POM152] | 1.81 ± 0.084
111 | LISKPAKKNNFIEDLAP [UBP6] | 2.73 ± 0.066
112 | LITPAVRNTAPNIRELG [YCG1] | 2.76 ± 0.15
113 | LITSEMFDAFVSFYFED [SIN4] | 2.59 ± 0.061
114 | LKEDDSSLYEASLNALK [RPN1] | 3.18 ± 0.14
115 | LKEERAIEPETFTQLVS [PUP3] | 2.85 ± 0.059
116 | LKENAGSLTFLDNKGSG [YIL149C/MLP2] | 3.37 ± 0.1
117 | LKENEENEDGNIEERKE [BRR2] | 3.56 ± 0.27
118 | LKEQELVLYDAENDVIE [BRR2] | 2.9 ± 0.16
119 | LKEQSEQLKEQMEDMEE [SMC4] | 2.92 ± 0.13
120 | LKERAKNISSQLDSKLM [YGR119C/NUP57] | 1.46 ± 0.22
121 | LKIFEGIPPPYDKKKRV [RPL16B] | 2.51 ± 0.087
122 | LKIIHDTFRWVGKKSAP [RPO31] | 2.43 ± 0.21
123 | LKKLEKEYELLTLQEDY [RPT3] | 2.31 ± 0.13
124 | LKLDKIIHVLTTMFENT [RGR1] | 2.43 ± 0.069
125 | LKLLAKSHVLLATPVQF [BRR2] | 1.4 ± 0.058

Row | Sequence | protein stability index
126 | LKLPADATTWRYSMSEQ [IRR1] | 2.65 ± 0.058
127 | LKRMEILKSPHLSKSPA [SIR4] | 2.93 ± 0.066
128 | LKSQMDTSKALLNVSVN [SKI6] | 2.92 ± 0.12
129 | LKTLTHKQIHTTIFVKS [POP7] | 2.07 ± 0.038
130 | LKTRYVGRQDPKKHLSE [RPN11] | 3.11 ± 0.18
131 | LKVYKVGDIVDIKANGS [RPL21A] | 2.14 ± 0.044
132 | LLAKAVANQTSATFLRI [RPT2] | 2.27 ± 0.1
133 | LLAREVLRLRGALVDRT [RPS0A] | 2.15 ± 0.094
134 | LLDDKKLMDEDSVATVI [YJR042W/NUP85] | 2.91 ± 0.21
135 | LLDEEAEQSFDQQSPWL [RPO21] | 3.25 ± 0.065
136 | LLDILVKGETRIQNRVK [PRP8] | 2.98 ± 0.097
137 | LLEKANNQQRLLLKKLD [SMC3] | 2.56 ± 0.074
138 | LLEKYNTNELKEVSSFL [MTR3] | 2.76 ± 0.054
139 | LLENPNCFFDVIVPQIV [DIS3] | 3.12 ± 0.12
140 | LLEPPAKELQGIDPDET [RPO31] | 3.11 ± 0.14
141 | LLHVAVSDSNDDVRRAA [RPN2] | 3.22 ± 0.076
142 | LLIEFPYLPKHYLVLLV [YJR042W/NUP85] | 1.67 ± 0.053
143 | LLIGCKLDQDDEIYIPI [CSI1] | 3.12 ± 0.18
144 | LLLAAQIVSYCSNNKNS [SSN2] | 1.42 ± 0.048
145 | LLLNYLELIGVLSINPD [MED7] | 1.78 ± 0.063
146 | LLNILITYGIIKVPTYI [SRB8] | 1.52 ± 0.09
147 | LLPNSKNVENTKNLSIL [DSN1] | 2.5 ± 0.11
148 | LLRIQMLLCVSYFLQER [PCI8] | 1.45 ± 0.044
149 | LLSDTFEVLAPKWERVF [RRI2] | 2.48 ± 0.076
